Biological target: SpyCatcher-fused ferritin protein (Streptococcus pyogenes | not stated)
Assay: SDS-PAGE of the covalent SpyTag/SpyCatcher adduct

## 6 × His-SpyTag-AE2F SOSIP.664
  percent of input conjugated: 80 to 90%

— PMC7959301
